Target: CSVTCG binding protein (human (endogenous in A549))
Test: radioligand binding

Work on “thrombospondin (from UniProt P07996 19-1170) (natural protein)” yielded a percent inhibition of binding of 64 % inhibition.

Reference: article PMC2119506
